According to patent US8163873:
One block for each substance: values may come before it.

Tests used:
[1] = target: purified abnormally phosphorylated tau, mixed with affinity-purified normal tau (human) (UniProt P10636); test: competition ELISA on captured tau mixture; signal of biotinylated BT2 with casein control, no competing antibody (row 1 µg/ml)
[2] = target: purified abnormally phosphorylated tau, mixed with affinity-purified normal tau (human) (UniProt P10636); test: competition ELISA on captured tau mixture; unlabeled BT2 at 37 ng/ml, competitor biotinylated AT8 (its signal is read)
[3] = target: purified abnormally phosphorylated tau, mixed with affinity-purified normal tau (human) (UniProt P10636); test: competition ELISA on captured tau mixture; signal of biotinylated BT2 with casein control, no competing antibody (row 333 ng/ml)
[4] = target: purified abnormally phosphorylated tau, mixed with affinity-purified normal tau (human) (UniProt P10636); test: competition ELISA on captured tau mixture; unlabeled BT2 at 37 ng/ml, competitor biotinylated BT2 (its signal is read)
[5] = target: purified abnormally phosphorylated tau, mixed with affinity-purified normal tau (human) (UniProt P10636); test: competition ELISA on captured tau mixture; unlabeled BT2 at 333 ng/ml, competitor biotinylated AT8 (its signal is read)
[6] = target: purified abnormally phosphorylated tau, mixed with affinity-purified normal tau (human) (UniProt P10636); test: competition ELISA on captured tau mixture; unlabeled BT2 at 9 µg/ml, competitor biotinylated AT8 (its signal is read)
[7] = target: purified abnormally phosphorylated tau, mixed with affinity-purified normal tau (human) (UniProt P10636); test: competition ELISA on captured tau mixture; unlabeled BT2 at 1 µg/ml, competitor biotinylated AT8 (its signal is read)
[8] = target: purified abnormally phosphorylated tau, mixed with affinity-purified normal tau (human) (UniProt P10636); test: competition ELISA on captured tau mixture; unlabeled BT2 at 111 ng/ml, competitor biotinylated BT2 (its signal is read)
[9] = target: purified abnormally phosphorylated tau, mixed with affinity-purified normal tau (human) (UniProt P10636); test: competition ELISA on captured tau mixture; signal of biotinylated BT2 with casein control, no competing antibody (row 37 ng/ml)
[10] = target: purified abnormally phosphorylated tau, mixed with affinity-purified normal tau (human) (UniProt P10636); test: competition ELISA on captured tau mixture; unlabeled BT2 at 1 µg/ml, competitor biotinylated BT2 (its signal is read)
[11] = target: purified abnormally phosphorylated tau, mixed with affinity-purified normal tau (human) (UniProt P10636); test: competition ELISA on captured tau mixture; unlabeled BT2 at 111 ng/ml, competitor biotinylated AT8 (its signal is read)
[12] = target: purified abnormally phosphorylated tau, mixed with affinity-purified normal tau (human) (UniProt P10636); test: competition ELISA on captured tau mixture; unlabeled BT2 at 9 µg/ml, competitor biotinylated BT2 (its signal is read)
[13] = target: purified abnormally phosphorylated tau, mixed with affinity-purified normal tau (human) (UniProt P10636); test: competition ELISA on captured tau mixture; unlabeled BT2 at 3 µg/ml, competitor biotinylated BT2 (its signal is read)
[14] = target: purified abnormally phosphorylated tau, mixed with affinity-purified normal tau (human) (UniProt P10636); test: competition ELISA on captured tau mixture; signal of biotinylated BT2 with casein control, no competing antibody (row 3 µg/ml)
[15] = target: purified abnormally phosphorylated tau, mixed with affinity-purified normal tau (human) (UniProt P10636); test: competition ELISA on captured tau mixture; signal of biotinylated BT2 with casein control, no competing antibody (row 9 µg/ml)
[16] = target: purified abnormally phosphorylated tau, mixed with affinity-purified normal tau (human) (UniProt P10636); test: competition ELISA on captured tau mixture; unlabeled BT2 at 333 ng/ml, competitor biotinylated BT2 (its signal is read)
[17] = target: purified abnormally phosphorylated tau, mixed with affinity-purified normal tau (human) (UniProt P10636); test: competition ELISA on captured tau mixture; unlabeled BT2 at 3 µg/ml, competitor biotinylated AT8 (its signal is read)
[18] = target: purified abnormally phosphorylated tau, mixed with affinity-purified normal tau (human) (UniProt P10636); test: competition ELISA on captured tau mixture; signal of biotinylated BT2 with casein control, no competing antibody (row 111 ng/ml)
[19] = target: purified abnormally phosphorylated tau, mixed with affinity-purified normal tau (human) (UniProt P10636); test: competition ELISA on captured tau mixture; unlabeled AT8 at 111 ng/ml, competitor biotinylated AT8 (its signal is read)
[20] = target: purified abnormally phosphorylated tau, mixed with affinity-purified normal tau (human) (UniProt P10636); test: competition ELISA on captured tau mixture; unlabeled AT8 at 111 ng/ml, competitor biotinylated BT2 (its signal is read)
[21] = target: PHF-tau (abnormally phosphorylated human tau, 64 and 68 kDa forms, from Alzheimer brain) (human) (UniProt P10636); test: sandwich ELISA, PHF-tau diluted 1/200, fixed concentration of AT8
[22] = target: purified abnormally phosphorylated tau, mixed with affinity-purified normal tau (human) (UniProt P10636); test: competition ELISA on captured tau mixture; unlabeled AT8 at 37 ng/ml, competitor biotinylated BT2 (its signal is read)
[23] = target: affinity-purified normal human tau (human) (UniProt P10636); test: sandwich ELISA, normal tau at 1 µg/ml, fixed concentration of AT8
[24] = target: purified abnormally phosphorylated tau, mixed with affinity-purified normal tau (human) (UniProt P10636); test: competition ELISA on captured tau mixture; unlabeled AT8 at 3 µg/ml, competitor biotinylated AT8 (its signal is read)
[25] = target: purified abnormally phosphorylated tau, mixed with affinity-purified normal tau (human) (UniProt P10636); test: competition ELISA on captured tau mixture; unlabeled AT8 at 9 µg/ml, competitor biotinylated BT2 (its signal is read)
[26] = target: affinity-purified normal human tau (human) (UniProt P10636); test: sandwich ELISA, normal tau at 10 ng/ml, fixed concentration of AT8
[27] = target: purified abnormally phosphorylated tau, mixed with affinity-purified normal tau (human) (UniProt P10636); test: competition ELISA on captured tau mixture; unlabeled AT8 at 1 µg/ml, competitor biotinylated BT2 (its signal is read)
[28] = target: PHF-tau (abnormally phosphorylated human tau, 64 and 68 kDa forms, from Alzheimer brain) (human) (UniProt P10636); test: sandwich ELISA, PHF-tau diluted 1/2000, fixed concentration of AT8
[29] = target: purified abnormally phosphorylated tau, mixed with affinity-purified normal tau (human) (UniProt P10636); test: competition ELISA on captured tau mixture; signal of biotinylated AT8 with casein control, no competing antibody (row 333 ng/ml)
[30] = target: purified abnormally phosphorylated tau, mixed with affinity-purified normal tau (human) (UniProt P10636); test: competition ELISA on captured tau mixture; unlabeled AT8 at 37 ng/ml, competitor biotinylated AT8 (its signal is read)
[31] = target: purified abnormally phosphorylated tau, mixed with affinity-purified normal tau (human) (UniProt P10636); test: competition ELISA on captured tau mixture; unlabeled AT8 at 333 ng/ml, competitor biotinylated AT8 (its signal is read)
[32] = target: purified abnormally phosphorylated tau, mixed with affinity-purified normal tau (human) (UniProt P10636); test: competition ELISA on captured tau mixture; signal of biotinylated AT8 with casein control, no competing antibody (row 111 ng/ml)
[33] = target: affinity-purified normal human tau (human) (UniProt P10636); test: sandwich ELISA, normal tau at 100 ng/ml, fixed concentration of AT8
[34] = target: purified abnormally phosphorylated tau, mixed with affinity-purified normal tau (human) (UniProt P10636); test: competition ELISA on captured tau mixture; signal of biotinylated AT8 with casein control, no competing antibody (row 1 µg/ml)
[35] = target: purified abnormally phosphorylated tau, mixed with affinity-purified normal tau (human) (UniProt P10636); test: competition ELISA on captured tau mixture; unlabeled AT8 at 333 ng/ml, competitor biotinylated BT2 (its signal is read)
[36] = target: purified abnormally phosphorylated tau, mixed with affinity-purified normal tau (human) (UniProt P10636); test: competition ELISA on captured tau mixture; unlabeled AT8 at 9 µg/ml, competitor biotinylated AT8 (its signal is read)
[37] = target: purified abnormally phosphorylated tau, mixed with affinity-purified normal tau (human) (UniProt P10636); test: competition ELISA on captured tau mixture; signal of biotinylated AT8 with casein control, no competing antibody (row 37 ng/ml)
[38] = target: purified abnormally phosphorylated tau, mixed with affinity-purified normal tau (human) (UniProt P10636); test: competition ELISA on captured tau mixture; signal of biotinylated AT8 with casein control, no competing antibody (row 9 µg/ml)
[39] = target: PHF-tau (abnormally phosphorylated human tau, 64 and 68 kDa forms, from Alzheimer brain) (human) (UniProt P10636); test: sandwich ELISA, PHF-tau diluted 1/20, fixed concentration of AT8
[40] = target: purified abnormally phosphorylated tau, mixed with affinity-purified normal tau (human) (UniProt P10636); test: competition ELISA on captured tau mixture; unlabeled AT8 at 1 µg/ml, competitor biotinylated AT8 (its signal is read)
[41] = target: purified abnormally phosphorylated tau, mixed with affinity-purified normal tau (human) (UniProt P10636); test: competition ELISA on captured tau mixture; signal of biotinylated AT8 with casein control, no competing antibody (row 3 µg/ml)
[42] = target: purified abnormally phosphorylated tau, mixed with affinity-purified normal tau (human) (UniProt P10636); test: competition ELISA on captured tau mixture; unlabeled AT8 at 3 µg/ml, competitor biotinylated BT2 (its signal is read)

absorbance at 450 nm [1]: 0.375 A450
absorbance at 450 nm [2]: 0.549 A450
absorbance at 450 nm [3]: 0.381 A450
absorbance at 450 nm [4]: 0.318 A450
absorbance at 450 nm [5]: 0.556 A450
absorbance at 450 nm [6]: 0.548 A450
absorbance at 450 nm [7]: 0.55 A450
absorbance at 450 nm [8]: 0.245 A450
absorbance at 450 nm [9]: 0.395 A450
absorbance at 450 nm [10]: 0.122 A450
absorbance at 450 nm [11]: 0.573 A450
absorbance at 450 nm [12]: 0.071 A450
absorbance at 450 nm [13]: 0.088 A450
absorbance at 450 nm [14]: 0.39 A450
absorbance at 450 nm [15]: 0.369 A450
absorbance at 450 nm [16]: 0.179 A450
absorbance at 450 nm [17]: 0.557 A450
absorbance at 450 nm [18]: 0.385 A450
Substance: monoclonal antibody BT2

absorbance at 450 nm [19]: 0.155 A450
absorbance at 450 nm [20]: 0.381 A450
A150 nm [21]: 1.18 A150 nm
absorbance at 450 nm [22]: 0.36 A450
A150 nm [23]: 0.021 A150 nm
absorbance at 450 nm [24]: 0.054 A450
absorbance at 450 nm [25]: 0.369 A450
A150 nm [26]: 0.001 A150 nm
absorbance at 450 nm [27]: 0.368 A450
A150 nm [28]: 0.565 A150 nm
absorbance at 450 nm [29]: 0.564 A450
absorbance at 450 nm [30]: 0.282 A450
absorbance at 450 nm [31]: 0.093 A450
absorbance at 450 nm [32]: 0.576 A450
A150 nm [33]: 0.005 A150 nm
absorbance at 450 nm [34]: 0.548 A450
absorbance at 450 nm [35]: 0.369 A450
absorbance at 450 nm [36]: 0.056 A450
absorbance at 450 nm [37]: 0.568 A450
absorbance at 450 nm [38]: 0.578 A450
A150 nm [39]: 1.46 A150 nm
absorbance at 450 nm [40]: 0.059 A450
absorbance at 450 nm [41]: 0.573 A450
absorbance at 450 nm [42]: 0.375 A450
Substance: monoclonal antibody AT8
